Data set [1] deals with T1, EtgA residues 18–152 with C-terminal 6xHis-tag (enteropathogenic Escherichia coli).
T1 chain: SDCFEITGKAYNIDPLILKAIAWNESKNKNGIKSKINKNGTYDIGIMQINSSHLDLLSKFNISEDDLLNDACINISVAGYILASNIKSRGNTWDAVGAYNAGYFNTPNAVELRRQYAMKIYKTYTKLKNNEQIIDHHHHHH
Kind of data set: differential scanning fluorimetry. In general terms: In DSF a fluorescence change marks the thermal transition of the protein.

Data set [2] concerns the target T1, EtgA residues 18–152 with C-terminal …. Kind of data set: MST.

As usually defined, the Kd is the equilibrium constant for the complex coming apart. The low end stands for higher affinity, the high end for lower affinity.

Turning to TAGVSSPEQVLIEEIKKRHLAT [EscI peptide comprising EscI residues 66–87], the “increase in Tm of EtgA (250 and 500 μM peptide)” value in data set [1] worked out at 2 °C. This molecule also had an equilibrium dissociation constant (Kd) in data set [2] of 385 ± 35 µM.

The values are drawn from paper PMC10880428 (Protein Science : A Publication of the Protein Society, 2024).
